Test results taken from PMC9266912, “CITF1 Functions Downstream of SPL7 to Specifically Regulate Cu Uptake in Arabidopsis”.

T1: His-SPL7 (SBP domain) (Arabidopsis, UniProt Q8S9G8 122-228)
T1 sequence: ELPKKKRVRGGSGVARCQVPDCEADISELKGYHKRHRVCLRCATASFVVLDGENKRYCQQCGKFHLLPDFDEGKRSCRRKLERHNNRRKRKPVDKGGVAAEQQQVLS

B1: ProCITF1-G (dsDNA)
DNA 1: CCATTTGTACTGCATAAAGACCCCCCACGTACATACAT
DNA 2: ATGTATGTACGTGGGGGGTCTTTATGCAGTACAAATGG
B2: mProCITF1-G (dsDNA)
DNA 1: CCATTTGGCCTGCATAAAGACCCCCCACGGCCATACAT
DNA 2: ATGTATGGCCGTGGGGGGTCTTTATGCAGGCCAAATGG
B3: ProFRO5-G (dsDNA)
DNA 1: CTATCATGTACGTTTTTAAGAGTTTCGTACAAATTCACGT
DNA 2: ACGTGAATTTGTACGAAACTCTTAAAAACGTACATGATAG
B4: ProCOPT2-G (dsDNA)
DNA 1: GATGATGTACTTGTACTACAGTACAACACATAC
DNA 2: GTATGTGTTGTACTGTAGTACAAGTACATCATC
B5: ProFRO4-G (dsDNA)
DNA 1: ACCCGTACAACGTATTCGTTACGAACCAATTTCTA
DNA 2: TAGAAATTGGTTCGTAACGAATACGTTGTACGGGT

Experiments:
His-SPL7 (SBP domain) [1] = target: T1, His-SPL7 (SBP domain); assay: EMSA; Chemiluminescent EMSA Kit (Beyotime), manufacturer's protocol; buffer, salt, pH and temperature not stated; settings: protein: recombinant; tags: 6xHis (pET-28a); label: 5' biotin (probe); blunt
His-SPL7 (SBP domain) [2] = target: T1, His-SPL7 (SBP domain); assay: competition; cold mutant against biotin-N1; Chemiluminescent EMSA Kit (Beyotime), manufacturer's protocol; buffer, salt, pH and temperature not stated; settings: protein: recombinant; tags: 6xHis (pET-28a); blunt

Row | Binder | binding result (His-SPL7 (SBP domain) [1]) | binding result (His-SPL7 (SBP domain) [2])
1 | B1 | binds | 
2 | B2 |  | no binding
3 | B3 | binds | 
4 | B4 | binds | 
5 | B5 | binds | 
